Source: IntAct's records for PubMed 20142513

B1: Protein ERGIC-53 (Homo sapiens), P49257 (parent)
chain: MAGSRQRGLRARVRPLFCALLLSLGRFVRGDGVGGDPAVALPHRRFEYKYSFKGPHLVQSDGTVPFWAHAGNAIPSSDQIRVAPSLKSQRGSVWTKTKAAFENWEVEVTFRVTGRGRIGADGLAIWYAENQGLEGPVFGSADLWNGVGIFFDSFDNDGKKNNPAIVIIGNNGQIHYDHQNDGASQALASCQRDFRNKPYPVRAKITYYQNTLTVMINNGFTPDKNDYEFCAKVENMIIPAQGHFGISAATGGLADDHDVLSFLTFQLTEPGKEPPTPDKEISEKEKEKYQEEFEHFQQELDKKKEEFQKGHPDLQGQPAEEIFESVGDRELRQVFEGQNRIHLEIKQLNRQLDMILDEQRRYVSSLTEEISKRGAGMPGQHGQITQQELDTVVKTQHEILRQVNEMKNSMSETVRLVSGMQHPGSAGGVYETTQHFIDIKEHLHIVKRDIDNLVQRNMPSNEKPKCPELPPFPSCLSTVHFIIFVVVQTVLFIGYIMYRSQQEAAAKKFF
partner: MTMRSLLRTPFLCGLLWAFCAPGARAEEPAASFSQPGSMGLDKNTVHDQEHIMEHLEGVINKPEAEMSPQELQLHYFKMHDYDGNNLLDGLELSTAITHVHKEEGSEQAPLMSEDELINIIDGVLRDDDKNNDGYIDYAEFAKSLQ
B2: Multiple coagulation factor deficiency protein 2 (Homo sapiens), Q8NI22 (parent)
chain: B1 partner
partner: B1 chain

Variants of: B1
Details: with mcfd2_human MCFD2, Q8NI22

effect of a mutation on the interaction	Variant
decreasing interaction	MAGSRQRGLRARVRPLFCALLLSLGRFVRGDGVGGDPAVALPHRAFEYKYSFKGPHLVQSDGTVPFWAHAGNAIPSSDQIRVAPSLKSQRGSVWTKTKAAFENWEVEVTFRVTGRGRIGADGLAIWYAENQGLEGPVFGSADLWNGVGIFFDSFDNDGKKNNPAIVIIGNNGQIHYDHQNDGASQALASCQRDFRNKPYPVRAKITYYQNTLTVMINNGFTPDKNDYEFCAKVENMIIPAQGHFGISAATGGLADDHDVLSFLTFQLTEPGKEPPTPDKEISEKEKEKYQEEFEHFQQELDKKKEEFQKGHPDLQGQPAEEIFESVGDRELRQVFEGQNRIHLEIKQLNRQLDMILDEQRRYVSSLTEEISKRGAGMPGQHGQITQQELDTVVKTQHEILRQVNEMKNSMSETVRLVSGMQHPGSAGGVYETTQHFIDIKEHLHIVKRDIDNLVQRNMPSNEKPKCPELPPFPSCLSTVHFIIFVVVQTVLFIGYIMYRSQQEAAAKKFF [R45A]

Variants of: B2
Details: with lman1_human LMAN1, P49257

effect of a mutation on the interaction	Variant
disrupting interaction	MTMRSLLRTPFLCGLLWAFCAPGARAEEPAASFSQPGSMGLDKNTVHDQEHIMEHLEGVINKPEAEMSPQELQLHYFKMHDYDGNNLLDGLELSTAITHVHKEEGSEQAPLMSEDELINIIVGVLRDDDKNNDGYIDYAEFAKSLQ

Variants of: B2
Details: with lman1_human LMAN1, P49257
Remark: another data set of the same source

effect of a mutation on the interaction	Variant
decreasing interaction	MTMRSLLRTPFLCGLLWAFCAPGARAEEPAASFSQPGSMGLDKNTVHDQEHIMEHLEGVINKPEAEMSPQELQLHYFKMHDYDGNNLLDGLELSTAITHVHKEEGSEQAPLMSEDELINIIVGVLRDDDKNNDGYIDYAEFAKSLQ

Variants of: B2
Details: with lman1_human LMAN1, P49257
Remark: another data set of the same source

effect of a mutation on the interaction	Variant
disrupting interaction	MTMRSLLRTPFLCGLLWAFCAPGARAEEPAASFSQPGSMGLDKNTVHDQEHIMEHLEGVINKPEAEMSPQELQLHYFKMHDYDGNNLLAGLELSTAITHVHKEEGSEQAPLMSEDELINIIDGVLRDDDKNNDGYIDYAEFAKSLQ
